Assay results taken from paper PMC8034617 (Nucleic Acids Research, 2021).
Ends that are not written are not given here.

B1: HNRNPK-derived peptide P1m (asymmetrically dimethylated) (peptide)
peptide: FPMRGRGGFDRMPPGRGGR
modifications: also: asymmetrically dimethylated, places not given here
B2: biotinylated HNRNPK peptide P1 (peptide)
peptide: FPMRGRGGFDRMPPGRGGR
modifications: also: biotin, position not given here
B3: biotinylated HNRNPK peptide P1m (peptide)
peptide: FPMRGRGGFDRMPPGRGGR
modifications: also: biotinylated, position not given here

Legend:
His-RPS19 wt [1] = molecular target: T1, His-RPS19 wt (human (cDNA from K562), UniProt P39019 1-145); test: thermal shift assay
His-RPS19 wt [2] = molecular target: T1, His-RPS19 wt; test: pull-down

Row | Binder | binding result (His-RPS19 wt [1]) | binding result (His-RPS19 wt [2])
1 | B1 | binds | –
2 | B2 | – | binds
3 | B3 | – | binds
